What was measured:
[1] = biological target: WelP1 (Hapalosiphon welwitschii, UniProt A0A067YVH5); assay: LC-MS product formation; format: biochemical; settings: co-substrate GPP; MgCl2 5 mM; Tris 50 mM pH 8.0
[2] = system: [C-]#[N+]/C=C\c1c[nH]c2ccccc12; assay: purified protein; format: biochemical, Fischerella ambigua; settings: co-substrate GPP, MgCl2 10 mM, pH 8.0

Compound: [C-]#[N+]/C=C\c1c[nH]c2ccccc12 [(Z)-1, cis-indolyl vinyl isonitrile]
- LC-MS product formation [1]: The enzymatic products derived from WelP1 and FidP1 are perfectly identical to that from AmbP1

Compound: AmbP1 (Fischerella ambigua UTEX 1903)
- Km [2]: 15.4 ± 3.2 µM
- kcat [2]: 6.9 ± 1.2 s⁻¹

Reference: publication PMC4720564 (Chemical communications (Cambridge, England), 2016)
